# Data: EP0797662B1 (NEW YORK UNIVERSITY, dated 1995)
# T1: SHC (54 kDa band, in lysates of NIH 3T3 cells expressing the EGFR/HER2 chimera) (mouse, UniProt P98083-2 1-469, limits assumed, tyrosine phosphorylated after EGF stimulation)
# T1 sequence (looked up): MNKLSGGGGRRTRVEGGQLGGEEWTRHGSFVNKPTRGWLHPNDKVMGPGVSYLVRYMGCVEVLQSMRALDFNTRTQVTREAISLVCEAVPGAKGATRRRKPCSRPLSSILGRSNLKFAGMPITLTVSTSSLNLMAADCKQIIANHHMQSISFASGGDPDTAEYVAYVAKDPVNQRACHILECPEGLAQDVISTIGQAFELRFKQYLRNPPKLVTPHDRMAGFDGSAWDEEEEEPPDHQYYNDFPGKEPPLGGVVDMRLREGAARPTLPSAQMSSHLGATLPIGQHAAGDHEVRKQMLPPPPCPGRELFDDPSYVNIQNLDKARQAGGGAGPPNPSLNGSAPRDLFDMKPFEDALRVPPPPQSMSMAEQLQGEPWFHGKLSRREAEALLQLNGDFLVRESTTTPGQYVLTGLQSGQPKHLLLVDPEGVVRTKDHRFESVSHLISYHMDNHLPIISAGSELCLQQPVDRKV
# Biological target: T1, SHC (54 kDa band, in lysates of NIH 3T3 …)
# Experiment: blot of lysate of NIH 3T3 cells with the chimera probed with 32P-labelled GST-GRB-7 SH2
binder,measurement,value
"GST fusion protein of the GRB-7 SH2 domain (amino acids 419-535) in pGSTag (other, mouse, UniProt Q03160 419-535, looked up, 32P-phosphate at the protein kinase A site of the vector when used as the probe, range 419-535; also called GST-GRB-7-SH2; [32P]GRB-7 SH2 domain; not shown: glutathione S-transferase of the pGSTag vector; protein kinase A phosphorylation site and linker of pGSTag) CSGSSLSAAIHRTQPWFHGRISREESQRLIGQQGLVDGVFLVRESQRNPQGFVLSLCHLQKVKHYLILPSEDEGCLYFSMDEGQTRFTDLLQLVEFHQLNRGILPCLLRHCCARVAL",binding result,binds
